From paper PMC3865253

Experiments:
GFP-ICAC84-224 (rat) = assay: co-IP; 293T cells co-transfected with myc-PICK1 and GFP, GFP-ICA69 or a GFP-tagged truncation; RIPA lysate; precipitated with anti-GFP antibody on protein A-sepharose; blot with anti-myc; quantified as Co-IP myc/Input myc, normalized to the ICA69 group; 4 independent cultures
GFP-ICAC1-83 (rat) = assay: as above
YFP-ICAC84-224 (rat) = assay: FRET or BRET; living HEK293T cells co-expressing CFP- and YFP-tagged proteins; three-filter imaging; normalized FRET signal N_FRET (Eq. 1); when FRET occurs N_FRET is greater than 0.2
Sequence of YFP-ICAC84-224 (rat) (Q63054 whole entry): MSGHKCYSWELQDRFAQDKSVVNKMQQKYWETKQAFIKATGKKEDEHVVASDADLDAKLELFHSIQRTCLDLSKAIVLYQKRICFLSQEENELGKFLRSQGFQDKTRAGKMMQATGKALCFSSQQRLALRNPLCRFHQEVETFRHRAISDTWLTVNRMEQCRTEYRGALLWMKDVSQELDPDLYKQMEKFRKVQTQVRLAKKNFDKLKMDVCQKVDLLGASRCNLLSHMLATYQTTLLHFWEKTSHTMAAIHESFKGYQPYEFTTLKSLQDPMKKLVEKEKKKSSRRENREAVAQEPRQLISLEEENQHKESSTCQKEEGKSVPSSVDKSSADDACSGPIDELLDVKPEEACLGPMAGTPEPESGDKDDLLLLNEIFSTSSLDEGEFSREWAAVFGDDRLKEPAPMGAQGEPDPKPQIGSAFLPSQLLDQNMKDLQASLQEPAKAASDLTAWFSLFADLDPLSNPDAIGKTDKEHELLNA

Sequence of GFP-ICAC84-224 (rat) (Q63054 whole entry, the tested form may be a part): as the sequence (Q63054 whole entry) above

percentage of precipitated protein normalized to ICA69 group (GFP-ICAC84-224 (rat)) [%]	percentage of precipitated protein normalized to ICA69 group (GFP-ICAC1-83 (rat)) [%]	N FRET (YFP-ICAC84-224 (rat))	Substance
66	11		myc-PICK1 (protein interacting with C-kinase 1) (from UniProt Q9EP80 1-416) (natural protein)
		0.86	CFP-PICK1 (from UniProt Q9EP80 1-416) (natural protein)
